The source of these data is publication PMC3699631, “Posttranslational Modifications of the Histone 3 Tail and Their Impact on the Activity of Histone Lysine Demethylases In Vitro” (PLoS ONE, 2013).

Test [1] deals with PHF8. Conditions: PHF8 with PHD domain; ref [5]; cited from earlier work. The source says:
The enzyme kinetics of FL-KDM4A and ...

Test [2] addresses T1, human cc-KDM4A (Homo sapiens, UniProt O75164).
T1 construct: Truncated constructs of KDM4A and KDM4C containing only the catalytic cores (cc-KDM4A/cc-KDM4C); made in house
T1 sequence (O75164 1-350 limits assumed): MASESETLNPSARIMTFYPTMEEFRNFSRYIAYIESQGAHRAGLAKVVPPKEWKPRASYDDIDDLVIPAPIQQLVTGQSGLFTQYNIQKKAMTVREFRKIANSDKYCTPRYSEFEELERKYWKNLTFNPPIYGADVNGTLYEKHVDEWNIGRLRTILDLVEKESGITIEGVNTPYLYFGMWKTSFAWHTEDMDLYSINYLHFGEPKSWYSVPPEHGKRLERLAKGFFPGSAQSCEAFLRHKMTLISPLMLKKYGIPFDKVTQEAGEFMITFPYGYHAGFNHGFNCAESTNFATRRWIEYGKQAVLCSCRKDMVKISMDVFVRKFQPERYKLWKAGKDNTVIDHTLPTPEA
In words: FDH-assay enzyme kinetics of H3 peptide demethylation, truncated KDM4A. It counts as biochemical. Conditions: for K m / k cat / k cat /K m / demethylation / catalytic activity (in words): FDH-assay; for K m: 50 mM HEPES (pH 7.5), 50 mM NaCl, 50 µM FeSO4, 500 µM α-KG, 500 µM ascorbate, 2 mM NAD, substrate 10–1000 µM, NADH fluorescence 15–30 minutes; for K m / k cat / k cat /K m: triplicate; for k cat / k cat /K m: pH 7.5; for k cat: NADH fluorescence; for k cat /K m: SD by propagation of errors, unit: min^−1 * µM^−1 * 10^3; for demethylation / catalytic activity (in words): compared to H3(1–24)K9me3 where a change is stated. On the procedure:
(§1) The enzyme kinetics were measured using a Formaldehyde DeHydrogenase Assay (FDH-Assay) and the demethylation of substrates was confirmed when possible by MALDI-TOF-MS, see File S1 for details. The test solution contained 50 mM HEPES (pH 7.5), 50 mM NaCl, 50 µM FeSO4, 500 µM α-KG, 500 µM ascorbate, 2 mM NAD, approximately 0.05 unit of FDH and e.g. 4.88 µM KDM4C (enzyme concentration varied between batches). The reference solution was comprised of the same except substrate. The assay was initiated by adding various concentrations of H3 peptide substrates e.g. H3(1–24)K9me3 (10–1000 µM) and the increase in NADH fluorescence was measured over 15–30 minutes in 30 second intervals. Data analysis and kinetic values were obtained using programs Excel and GraphPad Prism® 5.0. For details, see File S1.
(§2) The standard deviations for k cat/K m were calculated using the statistic law of propagation of errors. Standard errors for Michaelis-Menten Kinetics were automatically given in GraphPad Prism®, with a 95% confidence interval. All enzyme kinetic curves were done in triplicate unless otherwise stated.
(§3) Test for activity of enzyme using the fluorescence FDH assay, determination of Vmax and Km of enzymes with substrate, expression and purification of cc-KDM4A and cc-KDM4C software and parameters for the FDH coupled assay, see Lohse et al.^21
(§4) The standard deviations for kcat/ Km were calculated using the statistic law of propagation of errors. Standard errors for Michaelis-Menten Kinetics were automatically given in GraphPad Prism®, with a 95 % confidence interval. All enzyme kinetic curves were done in triplicate unless otherwise stated.

Test [3] concerns the target T2, human cc-KDM4C (Homo sapiens, UniProt Q9H3R0).
T2 construct: Truncated constructs of KDM4A and KDM4C containing only the catalytic cores (cc-KDM4A/cc-KDM4C); made in house
T2 sequence (Q9H3R0 1-349 limits assumed): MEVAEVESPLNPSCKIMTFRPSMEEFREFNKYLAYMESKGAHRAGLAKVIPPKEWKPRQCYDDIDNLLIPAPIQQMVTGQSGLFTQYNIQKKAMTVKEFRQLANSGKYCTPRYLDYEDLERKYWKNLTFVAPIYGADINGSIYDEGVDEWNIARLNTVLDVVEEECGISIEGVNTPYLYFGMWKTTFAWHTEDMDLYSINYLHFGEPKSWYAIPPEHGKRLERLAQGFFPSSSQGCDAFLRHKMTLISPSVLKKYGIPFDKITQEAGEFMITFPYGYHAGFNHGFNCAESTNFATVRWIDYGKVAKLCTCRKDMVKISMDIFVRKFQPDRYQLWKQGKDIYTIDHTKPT
In words: FDH-assay enzyme kinetics of H3 peptide demethylation, truncated KDM4C. The test is classed as biochemical. To be noted: for K m / demethylation / catalytic activity (in words) / k cat / k cat /K m: FDH-assay; for K m: 50 mM HEPES (pH 7.5), 50 mM NaCl, 50 µM FeSO4, 500 µM α-KG, 500 µM ascorbate, 2 mM NAD, substrate 10–1000 µM, e.g. 4.88 µM KDM4C, NADH fluorescence 15–30 minutes; for K m / k cat: triplicate; for demethylation / catalytic activity (in words): compared to H3(1–24)K9me3 where a change is stated; for k cat: pH 7.5, NADH fluorescence; for k cat /K m: pH 7.5, triplicate, SD by propagation of errors, unit: (min^−1 * µM^−1) * 10^3; for fold decrease in catalytic activity (k cat/K m): compared to H3(1–24)K9me3. Here is the method:
as §1, §2, §3, §4

Turning to “H3(1–24)K4me3-K9me2: H3(1–24) substrate with trimethylated K4 and dimethylated K9”, in test [1], the “change of K m” value is given as “a decrease in K m” and the “change of k cat” value is “an increase in k cat”.

Regarding “H3(1–24)K9me3K14(ac): histone peptide containing H3K9me3 in combination with acetylation of K14”, the “fold difference in catalytic activity between cc-KDM4A and cc-KDM4C” value in test [2] (cc-KDM4A versus cc-KDM4C) came to 10 fold. Further, in test [2] (cc-KDM4A), the K m amounted to 33±4, the k cat is reported as 1.0±0.03, the “k cat /K m” value turned out to be 30.3±3.8 and the “demethylation / catalytic activity (in words)” value was “an increase in the enzymatic catalytic efficiency”. In addition, the “fold increase in k cat/K m” value in test [2] (cc-KDM4A, compared to H3(1–24)K9me3) is listed as 3 fold. In addition, in test [3], the K m stood at 35.2±20, the “demethylation / catalytic activity (in words)” value is reported as “a decrease”, the k cat is recorded as 0.1±0.01 and the “k cat /K m” value is recorded as 2.8±0.2. The “fold decrease in catalytic activity (k cat/K m)” value in test [3] was found to be 3 fold.

Turning to “H3(1–24)T3(ph)K9me3: phosphorylation of threonine 3 in combination with lysine 9 trimethylation”, in test [2] (cc-KDM4A), the K m is on record as 162±15, the k cat is on record as 1.2±0.04, the “k cat /K m” value is reported as 7.4±0.7 and the “demethylation / catalytic activity (in words)” value was “did not prevent demethylation”. Also, in test [3], the K m amounted to 207±50, the “demethylation / catalytic activity (in words)” value is reported as “did not prevent demethylation”, the k cat came to 0.38±0.04 and the “k cat /K m” value stood at 1.8±0.1. Besides, the “fold decrease in catalytic activity (k cat/K m)” value in test [3] was 5 fold.
